Assay results as given in CN113135995A (SHANGHAI INST OF BIOLOGICAL PRODUCTS CO LTD, dated 2021).
Changes are numbered by the printed parent chain. Values belong to the binder of their own block, whether it stands above or below them.

Tests used:
[1] = molecular target: T1, HER3胞外区重组蛋白 (recombinant HER3 extracellular domain protein, expressed in CHO cells) (human, UniProt P21860 20-643); experiment: ProteOn XPR36 SPR, ratio of KD values
T1 construct: also called HER3蛋白

[2] = molecular target: T1, HER3胞外区重组蛋白 (recombinant HER3 …); experiment: ProteOn XPR36 SPR; antibody captured by goat anti-human IgG Fc on GLM chip, HER3 protein 0.625-10 nM as analyte
[3] = molecular target: T2, hGH标签的HER3胞外区蛋白 (hGH-tagged HER3 extracellular domain protein) (human, UniProt P21860 20-643); experiment: blocking ELISA: HRG coated, hGH-tagged HER3 ECD 1 ug/ml, antibody from 2 ug/ml in 1:3 steps, HRP anti-hGH detection
T2 construct: also called HER3分子; not shown: hGH tag
T2 sequence (P21860 20-643): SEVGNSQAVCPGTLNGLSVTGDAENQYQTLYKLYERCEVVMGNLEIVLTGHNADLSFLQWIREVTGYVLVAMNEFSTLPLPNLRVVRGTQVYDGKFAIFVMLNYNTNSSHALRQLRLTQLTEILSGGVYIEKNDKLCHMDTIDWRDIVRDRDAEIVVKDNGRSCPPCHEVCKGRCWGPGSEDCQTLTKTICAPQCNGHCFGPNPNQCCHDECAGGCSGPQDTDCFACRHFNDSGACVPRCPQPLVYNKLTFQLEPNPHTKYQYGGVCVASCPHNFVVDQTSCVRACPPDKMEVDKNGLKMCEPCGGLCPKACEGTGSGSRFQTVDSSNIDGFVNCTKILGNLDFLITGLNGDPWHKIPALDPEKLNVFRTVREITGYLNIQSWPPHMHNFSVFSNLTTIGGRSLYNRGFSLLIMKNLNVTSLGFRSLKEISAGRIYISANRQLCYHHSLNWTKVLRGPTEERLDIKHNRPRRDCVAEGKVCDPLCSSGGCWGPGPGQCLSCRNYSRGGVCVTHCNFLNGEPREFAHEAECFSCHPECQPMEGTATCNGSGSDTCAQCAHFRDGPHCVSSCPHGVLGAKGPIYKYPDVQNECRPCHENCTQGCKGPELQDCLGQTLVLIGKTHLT

[4] = molecular target: 细胞表面HER3分子 (HER3 on the surface of human tumour cells) (human, UniProt P21860 20-1342); experiment: cell-based or functional assay
Chain of 细胞表面HER3分子 (HER3 on the surface of human tumour cells) (P21860 20-1342 limits assumed): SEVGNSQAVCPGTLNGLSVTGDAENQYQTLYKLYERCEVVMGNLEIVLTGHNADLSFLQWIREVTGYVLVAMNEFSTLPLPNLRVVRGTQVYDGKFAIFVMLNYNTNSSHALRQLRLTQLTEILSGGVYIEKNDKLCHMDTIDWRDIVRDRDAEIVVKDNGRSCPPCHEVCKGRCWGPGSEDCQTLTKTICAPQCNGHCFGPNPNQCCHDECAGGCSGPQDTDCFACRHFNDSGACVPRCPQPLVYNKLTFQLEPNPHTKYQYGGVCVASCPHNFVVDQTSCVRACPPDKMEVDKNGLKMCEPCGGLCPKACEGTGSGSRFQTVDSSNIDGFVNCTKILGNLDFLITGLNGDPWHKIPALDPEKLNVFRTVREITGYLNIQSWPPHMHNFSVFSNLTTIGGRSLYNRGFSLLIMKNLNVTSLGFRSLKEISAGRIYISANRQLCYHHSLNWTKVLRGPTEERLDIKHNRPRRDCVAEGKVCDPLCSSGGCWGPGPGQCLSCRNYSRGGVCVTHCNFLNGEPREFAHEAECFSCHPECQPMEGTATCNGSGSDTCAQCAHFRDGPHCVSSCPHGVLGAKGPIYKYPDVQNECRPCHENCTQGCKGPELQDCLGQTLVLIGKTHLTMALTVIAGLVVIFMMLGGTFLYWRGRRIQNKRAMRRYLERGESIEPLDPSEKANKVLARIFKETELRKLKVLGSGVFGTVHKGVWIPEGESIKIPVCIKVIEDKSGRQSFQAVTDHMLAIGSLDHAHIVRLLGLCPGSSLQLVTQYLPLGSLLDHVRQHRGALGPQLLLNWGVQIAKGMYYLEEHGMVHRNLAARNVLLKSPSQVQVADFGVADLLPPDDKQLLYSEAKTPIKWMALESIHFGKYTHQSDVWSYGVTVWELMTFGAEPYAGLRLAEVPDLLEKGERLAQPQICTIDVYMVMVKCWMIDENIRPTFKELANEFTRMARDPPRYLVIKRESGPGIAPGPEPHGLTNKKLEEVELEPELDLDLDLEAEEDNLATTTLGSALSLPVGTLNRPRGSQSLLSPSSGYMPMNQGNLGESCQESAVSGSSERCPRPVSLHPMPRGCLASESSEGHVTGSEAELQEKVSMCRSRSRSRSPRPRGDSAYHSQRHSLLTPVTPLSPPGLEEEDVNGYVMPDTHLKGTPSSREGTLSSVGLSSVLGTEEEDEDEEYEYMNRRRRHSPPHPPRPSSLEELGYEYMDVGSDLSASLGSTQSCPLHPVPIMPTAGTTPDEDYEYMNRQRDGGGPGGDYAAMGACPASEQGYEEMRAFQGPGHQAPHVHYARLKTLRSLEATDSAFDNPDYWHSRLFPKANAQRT

T1 sequence (P21860 20-643 limits assumed): as the sequence (P21860 20-643) above

B1: hu1044Y抗体 (optimised humanized anti-HER3 antibody hu1044Y) (antibody, human IgG1, kappa, V domains shown)
VH: QVQLVQSGAEVKKPGSSVKVSCKASGYTFSNYWIDWVKQAPGQGLEWMGEILPGSGGTDYNEKFKGRVTITADTSTSTAYMELSSLRSEDTAVYYCARDDYDVFAYWGQGTLVTVSS
VL: DIVMTQSPGTLSLSPGERATLSCRSSKSLLHSNGITYLYWYQQKPGQAPRLLIYQMSNLASGIPDRFSSSGSGTDFTLTISRLEPEDFAVYYCAQNLELPWTFGQGTKVEIKR
notes: hu1044 with heavy chain position 27 changed from Gly to Tyr
fold increase in affinity against hu1044 [1]: ~2 倍 (fold)
Kd [2]: 0.232 nM

B2: hu1044抗体 (humanized anti-HER3 monoclonal antibody hu1044) (antibody, V domains shown)
VH: B1 VH with Y27G
VL: B1 VL
Kd [2]: 0.442 nM

Results, then the binder that gave them:

IC50 [3]: ~0.1 µg/mL
fold increase in affinity against hu1044-7 [1]: ~3 倍 (fold)
Kd [2]: 0.117 nM
HRG刺激的乳腺癌MCF-7细胞增殖 IC50 (CCK-8) [4]: 0.0133 µg/mL
B3: hu1044-7Y抗体 (optimised humanized anti-HER3 antibody hu1044-7Y) (antibody, human IgG1, kappa, V domains shown)
VH: B1 VH with K38R, R67K, V68A
VL: B1 VL with I63V
notes: hu1044-7 with heavy chain position 27 changed from Gly to Tyr; In the flow cytometry assays it was labelled with Dylight 488 NHS ester

Kd [2]: 0.375 nM
B4: hu1044-7抗体 (humanized anti-HER3 antibody variant hu1044-7) (antibody, V domains shown)
VH: B1 VH with Y27G, K38R, R67K, V68A
VL: B1 VL with I63V
